Changes are numbered by the printed parent chain. Names may count otherwise.
B1: G129D-hPRL (ligand, human, UniProt P01236 29-227, looked up)
chain: LPICPGGAARCQVTLRDLFDRAVVLSHYIHNLSSEMFSEFDKRYTHGRGFITKAINSCHTSSLATPEDKEQAQQMNQKDFLSLIVSILRSWNEPLYHLVTEVRGMQEAPEAILSKAVEIEEQTKRLLEDMELIVSQVHPETKENEIYPVWSGLPSLQMADEESRLSAYYNLLHCLRRDSHKIDNYLKLLKCRIIHNNNC
B2: G129F-hPRL (ligand, human, UniProt P01236 29-227, looked up)
chain: B1 chain with D129F
B3: G129L-hPRL (ligand, human, UniProt P01236 29-227, looked up)
chain: B1 chain with D129L
B4: G129N-hPRL (ligand, human, UniProt P01236 29-227, looked up)
chain: B1 chain with D129N
B5: G129P-hPRL (ligand, human, UniProt P01236 29-227, looked up)
chain: B1 chain with D129P
B6: G129R-hPRL (ligand, human, UniProt P01236 29-227, looked up)
chain: B1 chain with D129R
notes: mature
B7: G129V-hPRL (ligand, human, UniProt P01236 29-227, looked up)
chain: B1 chain with D129V
B8: G129Y-hPRL (ligand, human, UniProt P01236 29-227, looked up)
chain: B1 chain with D129Y

Each molecule was assayed against T1, human prolactin receptor (human, UniProt P16471 25-622) (assay: cell-based or functional assay).
T1 sequence (looked up): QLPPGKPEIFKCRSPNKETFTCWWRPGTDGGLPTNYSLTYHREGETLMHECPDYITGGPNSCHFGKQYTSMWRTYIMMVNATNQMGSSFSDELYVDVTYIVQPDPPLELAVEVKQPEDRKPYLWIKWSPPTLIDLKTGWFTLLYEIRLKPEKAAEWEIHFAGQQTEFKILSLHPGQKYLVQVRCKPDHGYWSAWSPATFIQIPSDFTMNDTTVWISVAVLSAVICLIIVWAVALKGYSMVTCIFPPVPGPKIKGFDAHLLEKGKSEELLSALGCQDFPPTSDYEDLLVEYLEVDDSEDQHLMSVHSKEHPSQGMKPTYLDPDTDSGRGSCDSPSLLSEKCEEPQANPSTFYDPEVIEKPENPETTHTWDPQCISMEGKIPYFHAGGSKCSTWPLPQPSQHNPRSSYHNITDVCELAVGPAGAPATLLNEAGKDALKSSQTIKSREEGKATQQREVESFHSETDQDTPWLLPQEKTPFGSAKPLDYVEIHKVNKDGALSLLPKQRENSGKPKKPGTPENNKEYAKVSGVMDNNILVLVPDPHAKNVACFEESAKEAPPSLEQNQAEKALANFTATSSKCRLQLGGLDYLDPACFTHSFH

For “Del1-9-G129R-hPRL (from UniProt P01236 29-227) (ligand)”, the Agonism Ba/F-LP cells (% of hPRL max activity) (% of hPRL max activity) was 8.3.

In order of rising Antagonism HL-5 cells IC50:
1. B2  110 nM
2. B7  110 nM
3. Del1-9-G129R-hPRL (from UniProt P01236 29-227) (ligand)  120 nM
4. B4  130 nM
5. B3  160 nM
6. B8  190 nM
7. B6  200 nM
8. B1  340 nM
9. B5  340 nM

In order of rising “Agonism Ba/F-LP cells (% of hPRL max activity)” value:
1. B7  14.2 % of hPRL max activity
2. B3  16.8 % of hPRL max activity
3. B2  19.1 % of hPRL max activity
4. B1  23.6 % of hPRL max activity
5. B8  24.3 % of hPRL max activity
6. B4  26.4 % of hPRL max activity
7. B6  45.5 % of hPRL max activity
8. B5  90.4 % of hPRL max activity

Each molecule was assayed against T1, human prolactin receptor (assay: displacement of [125I]-hPRL, homogenates of HEK 293 cells stably expressing hPRLR (HL-5 clone)).

Molecule B6 has an IC50 of 19 nM.

With B6 the “affinity relative to WT hPRL” value was ~1 order of magnitude lower than WT hPRL.

— patent EP2025683A1 (INSERM (Institut National de la Santé et de la Recherche …, dated 2009)
